B1: recombinant PKCζ (rePKCζ) (protein)
chain: MPSRTGPKMEGSGGRVRLKAHYGGDIFITSVDAATTFEELCEEVRDMCRLHQQHPLTLKWVDSEGDPCTVSSQMELEEAFRLARQCRDEGLIIHVFPSTPEQPGLPCPGEDKSIYRRGARRWRKLYRANGHLFQAKRFNRRAYCGQCSERIWGLARQGYRCINCKLLVHKRCHGLVPLTCRKHMDSVMPSQEPPVDDKNEDADLPSEETDGIAYISSSRKHDSIKDDSEDLKPVIDGMDGIKISQGLGLQDFDLIRVIGRGSYAKVLLVRLKKNDQIYAMKVVKKELVHDDEDIDWVQTEKHVFEQASSNPFLVGLHSCFQTTSRLFLVIEYVNGGDLMFHMQRQRKLPEEHARFYAAEICIALNFLHERGIIYRDLKLDNVLLDADGHIKLTDYGMCKEGLGPGDTTSTFCGTPNYIAPEILRGEEYGFSVDWWALGVLMFEMMAGRSPFDIITDNPDMNTEDYLFQVILEKPIRIPRFLSVKASHVLKGFLNKDPKERLGCRPQTGFSDIKSHAFFRSIDWDLLEKKQALPPFQPQITDDYGLDNFDTQFTSEPVQLTPDDEDAIKRIDQSEFEGFEYINPLLLSTEESV
B2: PKCζ in THP1 cell lysates (protein)
chain: B1 chain
B3: recombinant PKCε (rePKCε) (Calbiochem) (protein)
chain: MVVFNGLLKIKICEAVSLKPTAWSLRHAVGPRPQTFLLDPYIALNVDDSRIGQTATKQKTNSPAWHDEFVTDVCNGRKIELAVFHDAPIGYDDFVANCTIQFEELLQNGSRHFEDWIDLEPEGRVYVIIDLSGSSGEAPKDNEERVFRERMRPRKRQGAVRRRVHQVNGHKFMATYLRQPTYCSHCRDFIWGVIGKQGYQCQVCTCVVHKRCHELIITKCAGLKKQETPDQVGSQRFSVNMPHKFGIHNYKVPTFCDHCGSLLWGLLRQGLQCKVCKMNVHRRCETNVAPNCGVDARGIAKVLADLGVTPDKITNSGQRRKKLIAGAESPQPASGSSPSEEDRSKSAPTSPCDQEIKELENNIRKALSFDNRGEEHRAASSPDGQLMSPGENGEVRQGQAKRLGLDEFNFIKVLGKGSFGKVMLAELKGKDEVYAVKVLKKDVILQDDDVDCTMTEKRILALARKHPYLTQLYCCFQTKDRLFFVMEYVNGGDLMFQIQRSRKFDEPRSRFYAAEVTSALMFLHQHGVIYRDLKLDNILLDAEGHCKLADFGMCKEGILNGVTTTTFCGTPDYIAPEILQELEYGPSVDWWALGVLMYEMMAGQPPFEADNEDDLFESILHDDVLYPVWLSKEAVSILKAFMTKNPHKRLGCVASQNGEDAIKQHPFFKEIDWVLLEQKKIKPPFKPRIKTKRDVNNFDQDFTREEPVLTLVDEAIVKQINQEEFKGFSYFGEDLMP
B4: PKCε in THP1 cell lysates (protein)
chain: B3 chain

Assays:
[1] = biological target: GST-TRAM fusion protein (wild type), Q86XR7
Chain of GST-TRAM fusion protein (wild type), Q86XR7 (Q86XR7 whole entry, the tested form may be a part): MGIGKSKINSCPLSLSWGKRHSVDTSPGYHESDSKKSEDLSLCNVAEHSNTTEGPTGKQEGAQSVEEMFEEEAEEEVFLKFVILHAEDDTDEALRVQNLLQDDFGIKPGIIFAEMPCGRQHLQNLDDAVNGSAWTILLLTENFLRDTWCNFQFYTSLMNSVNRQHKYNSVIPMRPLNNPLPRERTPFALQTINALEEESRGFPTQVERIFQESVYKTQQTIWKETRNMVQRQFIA

[2] = biological target: Mal (MyD88 adaptor-like), P58753
Chain of Mal (MyD88 adaptor-like), P58753 (P58753 whole entry): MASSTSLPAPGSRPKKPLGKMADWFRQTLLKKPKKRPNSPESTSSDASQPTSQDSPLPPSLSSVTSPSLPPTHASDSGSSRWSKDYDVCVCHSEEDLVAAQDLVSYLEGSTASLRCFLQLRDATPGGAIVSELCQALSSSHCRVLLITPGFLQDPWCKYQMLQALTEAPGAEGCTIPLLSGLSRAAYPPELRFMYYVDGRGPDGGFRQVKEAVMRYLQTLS

[3] = biological target: GST-TRAM Ser16 mutant (serine 16 mutated to alanine), Q86XR7
Chain of GST-TRAM Ser16 mutant (serine 16 mutated to alanine), Q86XR7 (Q86XR7 whole entry, looked up, change not shown): as the sequence (Q86XR7 whole entry, the tested form may be a part) above

Protein	phosphorylation in an in-vitro kinase assay ([γ32P] ATP, autoradiography) [1]	phosphorylation of GST-TRAM after pulldown from immunodepleted THP1 lysates (kinase assay) [1]	phosphorylation in an in-vitro kinase assay ([γ32P] ATP, autoradiography) [2]	phosphorylation of GST-TRAM after pulldown from THP1 lysates (kinase assay) [3]
B1	Recombinant PKCζ did not phosphorylate TRAM again suggesting specificity			
B2		The removal of PKCζ had no effect on the phosphorylation of TRAM		
B3	recombinant PKCε (rePKCε) (Calbiochem) phosphorylated GST-TRAM		rePKCε phosphorylated WT-TRAM but not Mal	
B4		the removal of PKCε from the lysates abolishes the phosphorylation of TRAM		we mutated serine 16 to an alanine and found that the LPS dependent phosphorylation of TRAM was severally impaired

From patent US8221992
